Here are results for 46 molecules from US20250066503A1, “CELL INJURY INDUCING THERAPEUTIC DRUG FOR USE IN CANCER THERAPY” (CHUGAI SEIYAKU KABUSHIKI KAISHA, priority 2016, published 2025).

Where a chain is given by its changes, count along the chain named.

For the assay, the target named is T1, soluble human CD3 epsilon chain (human, UniProt P07766 23-126).
T1 construct: also called CD3ε
Briefly: SPR.

For orientation: Kd means the free concentration of one partner at which half of the binding sites on the other are occupied at equilibrium, for simple one-to-one binding.

T1 sequence (P07766 23-126 limits assumed): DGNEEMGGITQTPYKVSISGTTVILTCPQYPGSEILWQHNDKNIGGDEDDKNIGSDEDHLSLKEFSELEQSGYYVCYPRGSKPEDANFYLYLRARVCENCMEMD

B1: TR01H034-E22Hh/none-Hi-Kn010G3/L0000-k0 (antibody, V domains shown)
VH: QVQLVESGGGLVQPGRSLRLSCAASGFTFSNAWMHWVRQAPGKGLEWVAQIKGKSQNYATYYAESVKGRFTISRADSKNSIYLQMNSLKTEDTAVYYCRYVHYSASYGVDAWGQGTTVTVSS
VL: DIVMTQSPLSLPVTPGEPASISCRSSQSLVHSNRNTYLHWYQQKPGQAPRLLIYKVSNRFSGVPDRFSGSGSGTDFTLKISRVEAEDVGVYYCGQGTQVPYTFGQGTKLEIKR
notes: one-arm
B1 displayed a Kd of 91.1 nM.

B2: TR01H064-E22Hh/none-Hi-Kn010G3/L0000-k0 (antibody, V domains shown)
VH: B1 VH with A23S, G53D, S104A
VL: B1 VL
notes: one-arm
Molecule B2 registered a dissociation constant Kd of 30.7 nM. Against the preceding molecule, the Kd is about 3-fold lower.

B3: TR01H036-E22Hh/none-Hi-Kn010G3/L0000-k0 (antibody, V domains shown)
VH: B1 VH with Q56N, A111Y
VL: B1 VL
notes: one-arm
Consider B3, for which the dissociation constant Kd is 65 nM.

B4: TR01H035-E22Hh/none-Hi-Kn010G3/L0000-k0 (antibody, V domains shown)
VH: B1 VH with A111Y
VL: B1 VL
notes: one-arm
Molecule B4 gave a Kd of 84.9 nM.

B5: TR01H040-E22Hh/none-Hi-Kn010G3/L0204-k0 (antibody, V domains shown)
VH: B1 VH with G53D
VL: B1 VL with L29P, S61R
notes: one-arm
In turn, B5 displayed a Kd of 22.1 nM. This Kd lies about 3.8-fold lower than the previous one.

B6: TR01H051-E22Hh/none-Hi-Kn010G3/L0000-k0 (antibody, V domains shown)
VH: B1 VH with G53D, Q56N, I81L, A111I
VL: B1 VL
notes: one-arm
The molecule B6 yielded a Kd of 29.1 nM.

B7: TR01H067-E22Hh/none-Hi-Kn010G3/L0201-k0 (antibody, V domains shown)
VH: B1 VH with G53D, A75D, I81L, S104A
VL: B1 VL with S28P, L29P
notes: one-arm
The molecule B7 registered a dissociation constant (Kd) of 59.3 nM.

B8: TR01H055-E22Hh/none-Hi-Kn010G3/L0000-k0 (antibody, V domains shown)
VH: B1 VH with G53D, Q56N, A75D, I81L, A111I
VL: B1 VL
notes: one-arm
Molecule B8 gave a Kd of 38.8 nM. Compared with the last molecule, the Kd is about 1.5-fold lower.

B9: TR01H040-E22Hh/none-Hi-Kn010G3/L0208-k0 (antibody, V domains shown)
VH: B1 VH with G53D
VL: B1 VL with L29P, S61W, G94Y
notes: one-arm
For the molecule B9, the equilibrium dissociation constant (Kd) was determined as 4.16 nM.

B10: TR01H043-E22Hh/none-Hi-Kn010G3/L0000-k0 (antibody, V domains shown)
VH: B1 VH with A23S, G53D, Q56N, A111I
VL: B1 VL
notes: one-arm
In turn, B10 had a dissociation constant (Kd) of 15.2 nM. Against the preceding molecule, the Kd is about 3.7-fold higher.

B11: TR01H040-E22Hh/none-Hi-Kn010G3/L0201-k0 (antibody, V domains shown)
VH: B1 VH with G53D
VL: B1 VL with S28P, L29P
notes: one-arm
As for B11, the equilibrium dissociation constant (Kd) was 28.1 nM.

B12: TR01H049-E22Hh/none-Hi-Kn010G3/L0000-k0 (antibody, V domains shown)
VH: B1 VH with G53D, A75D
VL: B1 VL
notes: one-arm
B12: the dissociation constant (Kd) stood at 67.9 nM.

B13: TR01H040-E22Hh/none-Hi-Kn010G3/L0206-k0 (antibody, V domains shown)
VH: B1 VH with G53D
VL: B1 VL with L29P, G94Y
notes: one-arm
B13 came in with a Kd of 2.9 nM.

B14: TR01H039-E22Hh/none-Hi-Kn010G3/L0000-k0 (antibody, V domains shown)
VH: B1 VH with G53D, A111I
VL: B1 VL
notes: one-arm
In the case of B14, the Kd came to 26.1 nM.

B15: TR01H065-E22Hh/none-Hi-Kn010G3/L0000-k0 (antibody, V domains shown)
VH: B1 VH with G53D, A75D, S104A
VL: B1 VL
notes: one-arm
In the case of B15, the Kd was 43.1 nM.

B16: TR01H040-E22Hh/none-Hi-Kn010G3/L0000-k0 (antibody, V domains shown)
VH: B1 VH with G53D
VL: B1 VL
notes: one-arm
On to B16, for which the affinity, expressed as Kd, was 36 nM.

B17: TR01H041-E22Hh/none-Hi-Kn010G3/L0000-k0 (antibody, V domains shown)
VH: B1 VH with G53D, A111Y
VL: B1 VL
notes: one-arm
In turn, B17 displayed a dissociation constant Kd of 31.6 nM.

B18: TR01H040-E22Hh/none-Hi-Kn010G3/L0011-k0 (antibody, V domains shown)
VH: B1 VH with G53D
VL: B1 VL with S28P
notes: one-arm
Consider B18, for which the Kd came out at 34.8 nM.

B19: TR01H038-E22Hh/none-Hi-Kn010G3/L0000-k0 (antibody, V domains shown)
VH: B1 VH with G53D, Q56N, A111I
VL: B1 VL
notes: one-arm
In turn, B19 returned a Kd of 12.4 nM.

B20: TR01H058-E22Hh/none-Hi-Kn010G3/L0000-k0 (antibody, V domains shown)
VH: B1 VH with G53D, A75D, I81L, A111Y
VL: B1 VL
notes: one-arm
On to B20, for which binding was characterised by a dissociation constant (Kd) of 115 nM.

B21: TR01H046-E22Hh/none-Hi-Kn010G3/L0000-k0 (antibody, V domains shown)
VH: B1 VH with A23S, G53D, A111Y
VL: B1 VL
notes: one-arm
Turning to B21, binding was characterised by a dissociation constant (Kd) of 42.3 nM.

B22: TR01H061-E22Hh/none-Hi-Kn010G3/L0000-k0 (antibody, V domains shown)
VH: B1 VH with G53D, S104A, A111I
VL: B1 VL
notes: one-arm
As for B22, the affinity, expressed as Kd, was 17.1 nM.

B23: TR01H037-E22Hh/none-Hi-Kn010G3/L0000-k0 (antibody, V domains shown)
VH: B1 VH with H35P, Q56N, A111I
VL: B1 VL
notes: one-arm
For the molecule B23, the Kd worked out at 6.93 nM.

B24: TR01H053-E22Hh/none-Hi-Kn010G3/L0000-k0 (antibody, V domains shown)
VH: B1 VH with G53D, I81L
VL: B1 VL
notes: one-arm
Molecule B24 yielded a dissociation constant Kd of 82.3 nM.

B25: TR01H040-E22Hh/none-Hi-Kn010G3/L0203-k0 (antibody, V domains shown)
VH: B1 VH with G53D
VL: B1 VL with L29P, L38I
notes: one-arm
Regarding B25, binding was characterised by a dissociation constant (Kd) of 32.4 nM. This Kd lies about 2.5-fold lower than the previous one.

B26: TR01H040-E22Hh/none-Hi-Kn010G3/L0209-k0 (antibody, V domains shown)
VH: B1 VH with G53D
VL: B1 VL with L29P, L38I, G94Y
notes: one-arm
B26 yielded a Kd of 4.25 nM. This Kd lies about 7.6-fold lower than the previous one.

B27: TR01H056-E22Hh/none-Hi-Kn010G3/L0000-k0 (antibody, V domains shown)
VH: B1 VH with G53D, A75D, I81L, A111I
VL: B1 VL
notes: one-arm
Consider B27, for which the dissociation constant (Kd) was 73.2 nM.

B28: TR01H067-E22Hh/none-Hi-Kn010G3/L0000-k0 (antibody, V domains shown)
VH: B1 VH with G53D, A75D, I81L, S104A
VL: B1 VL
notes: one-arm
For the molecule B28, the Kd is 71.5 nM.

B29: TR01H066-E22Hh/none-Hi-Kn010G3/L0000-k0 (antibody, V domains shown)
VH: B1 VH with G53D, I81L, S104A
VL: B1 VL
notes: one-arm
In turn, B29 yielded a Kd of 60.2 nM.

B30: TR01H054-E22Hh/none-Hi-Kn010G3/L0000-k0 (antibody, V domains shown)
VH: B1 VH with G53D, I81L, A111Y
VL: B1 VL
notes: one-arm
Molecule B30 had a Kd of 77.9 nM.

B31: TR01H067-E22Hh/none-Hi-Kn010G3/L0212-k0 (antibody, V domains shown)
VH: B1 VH with G53D, A75D, I81L, S104A
VL: B1 VL with S25P, L29P, G94Y
notes: one-arm
Consider B31, for which the equilibrium dissociation constant (Kd) amounted to 5.88 nM. Compared with the last molecule, the Kd is about 13-fold lower.

B32: TR01H042-E22Hh/none-Hi-Kn010G3/L0000-k0 (antibody, V domains shown)
VH: B1 VH with L11V, R16G, G53D
VL: B1 VL
notes: one-arm
In turn, B32 displayed an equilibrium dissociation constant (Kd) of 44.8 nM.

B33: TR01H061-E22Hh/none-Hi-Kn010G3/L0222-k0 (antibody, V domains shown)
VH: B1 VH with G53D, S104A, A111I
VL: B1 VL with L29P, L38I, H39Q, G94Y
notes: one-arm
B33 came in with a Kd of 18.8 nM.

B34: TR01H048-E22Hh/none-Hi-Kn010G3/L0000-k0 (antibody, V domains shown)
VH: B1 VH with G53D, A75D, A111I
VL: B1 VL
notes: one-arm
Consider B34, for which the dissociation constant (Kd) came to 45.2 nM.

B35: TR01H045-E22Hh/none-Hi-Kn010G3/L0000-k0 (antibody, V domains shown)
VH: B1 VH with A23S, G53D
VL: B1 VL
notes: one-arm
For B35, binding was put at a Kd of 52.2 nM.

B36: TR01H052-E22Hh/none-Hi-Kn010G3/L0000-k0 (antibody, V domains shown)
VH: B1 VH with G53D, I81L, A111I
VL: B1 VL
notes: one-arm
B36 registered a Kd of 62.7 nM.

B37: TR01H040-E22Hh/none-Hi-Kn010G3/L0212-k0 (antibody, V domains shown)
VH: B1 VH with G53D
VL: B1 VL with S25P, L29P, G94Y
notes: one-arm
Molecule B37 yielded a Kd of 2.17 nM.

B38: TR01H044-E22Hh/none-Hi-Kn010G3/L0000-k0 (antibody, V domains shown)
VH: B1 VH with A23S, G53D, A111I
VL: B1 VL
notes: one-arm
The molecule B38 displayed a Kd of 35.2 nM.

B39: TR01H040-E22Hh/none-Hi-Kn010G3/L0211-k0 (antibody, V domains shown)
VH: B1 VH with G53D
VL: B1 VL with S28P, L29P, G94Y
notes: one-arm
With B39, the Kd amounted to 3.22 nM.

B40: TR01H047-E22Hh/none-Hi-Kn010G3/L0000-k0 (antibody, V domains shown)
VH: B1 VH with G53D, Q56N, A75D, A111I
VL: B1 VL
notes: one-arm
B40: the equilibrium dissociation constant (Kd) stood at 20.4 nM.

B41: TR01H067-E22Hh/none-Hi-Kn010G3/L0203-k0 (antibody, V domains shown)
VH: B1 VH with G53D, A75D, I81L, S104A
VL: B1 VL with L29P, L38I
notes: one-arm
Turning to B41, the dissociation constant Kd was determined as 47.9 nM.

B42: TR01H063-E22Hh/none-Hi-Kn010G3/L0000-k0 (antibody, V domains shown)
VH: B1 VH with L11V, R16G, G53D, S104A
VL: B1 VL
notes: one-arm
Consider B42, for which the Kd worked out at 43.5 nM.

B43: TR01H040-E22Hh/none-Hi-Kn010G3/L0222-k0 (antibody, V domains shown)
VH: B1 VH with G53D
VL: B1 VL with L29P, L38I, H39Q, G94Y
notes: one-arm
The molecule B43 registered a Kd of 46.5 nM.

B44: TR01H057-E22Hh/none-Hi-Kn010G3/L0000-k0 (antibody, V domains shown)
VH: B1 VH with G53D, A75D, I81L
VL: B1 VL
notes: one-arm
With B44, the dissociation constant Kd came to 112 nM. Against the preceding molecule, the Kd is about 2.4-fold higher.

B45: TR01H050-E22Hh/none-Hi-Kn010G3/L0000-k0 (antibody, V domains shown)
VH: B1 VH with G53D, A75D, A111Y
VL: B1 VL
notes: one-arm
Molecule B45 registered a Kd of 57.6 nM.

B46: TR01H067-E22Hh/none-Hi-Kn010G3/L0011-k0 (antibody, V domains shown)
VH: B1 VH with G53D, A75D, I81L, S104A
VL: B1 VL with S28P
notes: one-arm
B46: the Kd stood at 71.8 nM.
